Source: paper PMC6239180

Key:
[1] = biological target: hPcf11 (CF II subunit);hClp1 (CF II subunit or alone) (human;human) (UniProt O94913+Q92989); assay: filter binding
[2] = biological target: T1, hClp1 (CF II subunit or alone) (human) (UniProt Q92989); assay: filter binding
T1 sequence: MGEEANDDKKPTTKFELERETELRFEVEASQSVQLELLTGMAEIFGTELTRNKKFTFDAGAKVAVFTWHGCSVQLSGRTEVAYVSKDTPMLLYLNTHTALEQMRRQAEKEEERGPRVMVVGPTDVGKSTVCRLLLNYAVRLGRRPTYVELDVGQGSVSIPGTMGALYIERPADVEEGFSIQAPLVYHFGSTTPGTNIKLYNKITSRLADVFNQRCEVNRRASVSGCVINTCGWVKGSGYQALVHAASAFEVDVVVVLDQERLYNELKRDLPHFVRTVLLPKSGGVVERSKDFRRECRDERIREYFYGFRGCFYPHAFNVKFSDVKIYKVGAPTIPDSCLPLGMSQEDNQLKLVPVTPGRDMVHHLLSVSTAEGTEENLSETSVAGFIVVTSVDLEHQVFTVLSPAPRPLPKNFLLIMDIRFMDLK

hPcf11 (CF II subunit);hClp1 (CF II subunit or alone) (human;human), sequence (O94913 whole entry, one chain of several): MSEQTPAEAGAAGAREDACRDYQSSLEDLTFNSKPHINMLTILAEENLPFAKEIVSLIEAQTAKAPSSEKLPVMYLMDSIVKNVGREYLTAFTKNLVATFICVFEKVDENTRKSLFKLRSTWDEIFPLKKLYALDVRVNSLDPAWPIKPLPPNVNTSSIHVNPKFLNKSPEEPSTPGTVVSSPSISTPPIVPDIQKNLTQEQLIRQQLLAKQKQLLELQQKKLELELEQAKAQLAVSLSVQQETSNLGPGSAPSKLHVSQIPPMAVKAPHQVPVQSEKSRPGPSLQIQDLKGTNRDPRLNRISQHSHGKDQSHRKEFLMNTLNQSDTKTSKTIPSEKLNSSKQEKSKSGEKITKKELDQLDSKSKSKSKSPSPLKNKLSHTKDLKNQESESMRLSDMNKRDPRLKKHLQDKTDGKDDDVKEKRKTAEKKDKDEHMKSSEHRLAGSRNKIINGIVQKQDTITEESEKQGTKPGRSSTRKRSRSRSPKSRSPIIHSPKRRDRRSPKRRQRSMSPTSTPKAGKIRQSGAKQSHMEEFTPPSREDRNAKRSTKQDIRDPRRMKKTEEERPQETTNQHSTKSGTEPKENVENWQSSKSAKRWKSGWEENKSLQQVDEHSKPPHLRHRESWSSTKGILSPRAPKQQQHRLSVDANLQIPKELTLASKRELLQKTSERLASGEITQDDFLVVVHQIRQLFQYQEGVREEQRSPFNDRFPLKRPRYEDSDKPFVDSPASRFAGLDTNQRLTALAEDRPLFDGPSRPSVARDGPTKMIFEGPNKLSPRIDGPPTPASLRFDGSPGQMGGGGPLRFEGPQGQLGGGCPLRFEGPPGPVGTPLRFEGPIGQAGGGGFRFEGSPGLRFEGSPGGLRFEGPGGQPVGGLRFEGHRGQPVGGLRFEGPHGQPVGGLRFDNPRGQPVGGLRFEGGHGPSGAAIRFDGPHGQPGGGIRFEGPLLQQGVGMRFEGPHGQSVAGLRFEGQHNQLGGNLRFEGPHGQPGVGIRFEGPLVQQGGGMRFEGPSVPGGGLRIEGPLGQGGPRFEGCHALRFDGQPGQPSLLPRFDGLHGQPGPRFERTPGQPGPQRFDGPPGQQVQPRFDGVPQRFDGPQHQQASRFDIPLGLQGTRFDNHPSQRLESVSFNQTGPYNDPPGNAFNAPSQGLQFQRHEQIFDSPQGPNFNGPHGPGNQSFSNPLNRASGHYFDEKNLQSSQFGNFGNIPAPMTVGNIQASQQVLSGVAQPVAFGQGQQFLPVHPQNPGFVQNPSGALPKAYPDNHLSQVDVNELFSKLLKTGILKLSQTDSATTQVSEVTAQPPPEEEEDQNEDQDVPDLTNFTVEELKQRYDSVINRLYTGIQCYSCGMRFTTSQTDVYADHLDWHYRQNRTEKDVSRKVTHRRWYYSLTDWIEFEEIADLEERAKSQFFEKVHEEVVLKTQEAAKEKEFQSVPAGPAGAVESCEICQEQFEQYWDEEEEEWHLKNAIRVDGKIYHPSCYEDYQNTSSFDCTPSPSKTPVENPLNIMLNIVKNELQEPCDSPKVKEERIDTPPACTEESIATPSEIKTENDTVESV

L3 RNA
K half [1]: 0.9 nM

SV40 late RNA
K half [1]: 0.4 nM
K half [2]: 140 nM
